The values that follow come from patent US20190201542A1 (AbbVie / Abbott, published 2019).

The assay has as its target T1, human DLL3 (human, UniProt Q9NYJ7 27-492, limits assumed).
T1 construct: also called hDLL3; DLL3 protein
T1 sequence: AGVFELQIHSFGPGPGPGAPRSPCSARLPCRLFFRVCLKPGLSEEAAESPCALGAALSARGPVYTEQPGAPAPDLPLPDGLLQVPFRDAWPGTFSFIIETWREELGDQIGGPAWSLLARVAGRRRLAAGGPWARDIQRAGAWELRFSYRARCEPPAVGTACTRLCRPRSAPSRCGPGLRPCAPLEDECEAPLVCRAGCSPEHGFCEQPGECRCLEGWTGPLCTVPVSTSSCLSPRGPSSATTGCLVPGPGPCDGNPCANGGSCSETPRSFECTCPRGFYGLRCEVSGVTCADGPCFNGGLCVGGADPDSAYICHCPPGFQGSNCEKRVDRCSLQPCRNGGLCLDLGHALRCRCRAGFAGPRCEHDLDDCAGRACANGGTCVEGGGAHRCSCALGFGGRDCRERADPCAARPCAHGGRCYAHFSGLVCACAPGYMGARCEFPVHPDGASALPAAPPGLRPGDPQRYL
As to the kind of experiment: screen on immobilized hDLL3 or h293-hDLL3 cells. The essentials:
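Solid-phase ELISA on DLL3-His (0.5 μg/ml coating), developed with HRP anti-mouse IgG and TMB and read at OD 450, was one screen for supernatants of single-cell hybridomas from human DLL3-immunized mice taken after 10 days in culture. Flow-cytometry binding counted as positive only above the control.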

B1: SC16.79 (antibody, V domains shown)
VH: EVQLQQSGPELVKPGASVKISCKTSGYTFTEYTMHWVKQSHGKSLEWIGGINPNNGGTSYNQKFKGKATLTVDKSSSTAYMELRSLTSEDSAVYYCARGPAWFAYWGQGTLVTVSA
VL: DIVMSQSPSSLAVSAGEKVTMSCKSSQSLLNSRTRKNYLAWYQQKPGQSPKLLIYWASTRESGVPDRFTGSGSGTDFTLTISSVQAEDLAVYYCKQSYNLYTFGGGTKLKIK
notes: murine mAb
Regarding B1, the binding result is listed as “binds”.

B2: SC16.63 (antibody, V domains shown)
VH: QVQLQQSGTELLRPGASVKISCKATGYTFSSYWMEWVKQRPGHGLEWIGEILPGSGTTQYNEKFKGKATFTADTSSNTAYMHLSSLTSEDSAVYYCARGTNSLWGQGTLVTVSA
VL: QIVLTQSPAIMSASPGEKVTMTCSASSSVSYMYWYQQKSGTSPKRWIYDTSKLASGVPARFSGSGSGTSYSLTISSMEAEDAATYYCQQWSSNPYTFGGGTKLEIK
notes: murine mAb
Turning to B2, the binding result is given as “binds”.

B3: SC16.7 (antibody, V domains shown)
VH: EVQLQQSGPELVKPGASVKISCKASGYSFTGYKMHWVKQSHVKSLEWIGRINPYNGATSYNQNFKDKATLTVDKSSSTAYMDLHSLTSEDSAVYFCARGDYRYDWFAYWGQGTLVTVSA
VL: NIMMTQSPSSLAVSAGEKVTMSCKSSQSVLYSSNQKNYLAWYQQKPGQSPKLLIYWASTRESGVPDRFTGSGSGTDFTLTISTVQVEDLAVYYCHQYLSSWTFGGGTKLEIK
notes: murine mAb
B3: the binding result is on record as “binds”.

B4: SC16.81 (antibody, V domains shown)
VH: QVQLKESGPVLVAPSQSLSITCTVSGFSLTSYGVHWVRQPPGKGLEWLGVIWAGGSTNYNSALMSRLSISKDNSKSQVFLKMNSLQTDDTAMYYCAKQGNFYAMDYWGQGTSVTVSS
VL: QIVLTQSPAIMSASLGERVTLTCTASSSVSSSYLHWYQQKPGSSPKLWIYSTSNLASGVPTRFSGSGSGTSYSLRISSMEAEDAATYYCHQYNRSPLTFGAGTKLELK
notes: murine mAb
Regarding B4, the binding result is recorded as “binds”.

B5: SC16.101 (antibody, V domains shown)
VL: QIVLTQSPAIMSASLGERVTMTCTASSSVSSSYLHWYQQKPGSSPKLWIYSTSNLASGVPARFSGSESGTSYSLTISNMEAEDAATYYCHQYHRSPFTFGSGTKLEIK
V domain: QVTLKESGPGILQPSQTLSLTCSFSGFSLSTSGMGVGWIRQPSGKGLEWLAHIWWDDVKRYNPALKSRLTISKDASSSQVFLKIASVDTAETATYYCAHILDRAYYFDYWGQGTTLTVTS
notes: murine mAb
With B5, the binding result is reported as “binds”.

B6: SC16.57 (antibody, V domains shown)
VH: EVKLVESGGDLVKPGGSLKLSCAASGFAFSSYDMSWVRQTPEKRLEWVATISSGGSYTYYPDSVKGRFTISRDNVRDTLYLQMSSLRSEDTALYYCARQAIGTYFDYWGQGTTLTVSS
VL: DIVMTQSHKFMSISVGDRVSITCKASQDVSIFVAWYQQKPGQSPKLLIYSASYRYTGVPDRFTGSGSGTDFIFTISSVQAEDLAVYYCQQHYGTPFTFGSGTKLKIR
notes: murine mAb
Take B6: the binding result is “binds”.

B7: SC16.58 (antibody, V domains shown)
VH: DVQLVESGGGLVQPGGSRKLSCAASGFTFSSFGMHWVRQAPEKGLEWVAYISSGSSNIYYADTVKGRFTISRDNPKNTLFLQMTSLRSEDTAMYYCARGYYGNYDAMDYWGQGTSVTVSS
VL: DIQMTQSPASLSSSVGETVTITCRASENIYSYLAWYQQKQGKSPQLLVYNAKTLAEGVPSRFSGSGSGTQFSLKINSLQPEDFGTYYCQHHYDSPLTFGAGTKLELR
notes: murine mAb
On to B7, for which the binding result is recorded as “binds”.

B8: SC16.55 (antibody, V domains shown)
VH: EVQLVESGGGLVQPKGSLKLSCAVSAFTFTTYAMNWVRQAPGKGLEWVARIRNKSNNYATYYADSVKDRFTISRDDSQSMLYLQMNNLKIEDTAMYYCVFYYDYVYWGQGTLVTVSA
VL: DIKMTQSPSSMYASLGERVTITCKASQDINSYLNWFQQKPGKSPKTLIYRANRLVDGVPSRFSGSGSGQDYSLTISSLEYEDMGIYYCLQYDEFPYTFGGGTKLEIK
notes: murine mAb
On to B8, for which the binding result is “binds”.

B9: SC16.67 (antibody, V domains shown)
VH: EVQLVETGGGLVQPKGSLKLSCAVSAFTFTTYAMNWVRQAPGKGLEWVARIRNKSNNYATYYADSVKDRFTISRDDSQSMLYLQMNNLKIEDTAMYYCVFYYDYVYWGQGTLVTVSA
VL: QAVVTQESALTTSPGETVTLTCRSSTGAVTTSNYANWIQEKPDHLFTGLIGGTNNRAPGVPARFSGSLIGDKAALTITGAQTEDEAIYFCGLWYSNHLVFGGGTKLTVL
notes: murine mAb
Turning to B9, the binding result is “binds”.

B10: SC16.78 (antibody, V domains shown)
VH: EVKLVESGGGLVKPGGSLKLSCAASGFTFGRYVMSWVRQTPEKKLEWVASITSGGTTYYPDSVKGRFTISRDNARNILYLQMSSLRSEDTAMYYCARVYYHYDDIFAYWGQGTLVTVSA
VL: DIKMTQSPSSMYASLGERVTITCKASQDINSYLSWFQQKPGRSPKTLIYRANRLVDGVPSRFSGSGSGQDYSLTISSLDYEDMGIYYCLQYDEFPFTFGSGTKLEIK
notes: murine mAb
B10: the binding result is listed as “binds”.

B11: SC16.62 (antibody, V domains shown)
VH: EVMLVESGGDLVKPGGSLKLSCAASGFTFSSYAMSWVRQTPEKRLEWVAYISGGGDHIYYPDSVRGRFTISRDNAKDTLYLQMSSLRSEDTALYDCARVRDWYFDVWGAGTTVTVSS
VL: DIKMTQSPSSMYASLGERVTITCKASQDINSFLSWFQRKPGKSPKTLIYRANRLVDGVPSRFTGSGSGQEFSLTISSLEYEDLGIYYCLQYDEFPYTFGGGTKLEIK
notes: murine mAb
As for B11, the binding result is given as “binds”.

B12: SC16.8 (antibody, V domains shown)
VH: QAQLQQSGAELVRPGTSVKVSCKASGYAFTNYLIEWVKQRPGQGLEWIGVINPGTGGTNYNENFKGKATLTADKSSSTAYMQLSSLTSDDSAVYFCARSPYDYHEGAMDYWGQGTSVTVSS
VL: EIQMTQSPSSMSASLGDRITITCQATQDIVKNLNWYQQKPGKPPSFLIYYAIELAEGVPSRFSGSGSGSDYSLTISNLESEDFADYYCLQFYEFPFTFGAGTKLELK
notes: murine mAb
Take B12: the binding result is listed as “binds”.

B13: SC16.65 (antibody, V domains shown)
VH: QVTLKESGPGILQPSQTLSLTCSFSGFSLSTSGMGVGWIRQPSGKGLEWLALIWWDDVKRYNPALKSRLTISKDASSSQVFLKIASVDTADTATYYCARIASYDYDVVYAMDYWGQGTSVSVSS
VL: QIVLTQSPALMSASPGEKVTMTCSVTSSVSYMYWYQQKPRSSPKPWIYLTSNLASGVPARFSGSGSGTSYSLTISSVEAEDAATYYCQQWRNNPFTFGSGTKVEIK
notes: murine mAb
For the molecule B13, the binding result was “binds”.

B14: SC16.80 (antibody, V domains shown)
VH: EVQLQQSGPELVKPGGSKKISCKASGYSFTGYSMNWVKQSHGKNLEWIGLINPYSGGTIYNQKFKGKATLTVDKSSSTAYMELLSLTSEDSAVYYCARRSDYPLVYWGQGTLVTVSA
VL: ETTVTQSPASLSMAIGEKVTIRCITSTDIDDDMIWYQQKPGEPPKLLISEGNTLRPGVPSRFSSSGYGTDFVFTIENMLSEDVADYYCLKRDDLPYTFGGGTQVEIK
notes: murine mAb
B14: the binding result was “binds”.

B15: SC16.88 (antibody, V domains shown)
VH: QVQLQQSGAELARPGASVKLSCKASGYTCTSYWMQWVKQRPGQGLEWIGAIYPGDGDTRYTQKFKGKATLTADKSSSTAYMQLSSLASEDSAVYYCARGRRTEAWFAYWGQGTLVTVSA
VL: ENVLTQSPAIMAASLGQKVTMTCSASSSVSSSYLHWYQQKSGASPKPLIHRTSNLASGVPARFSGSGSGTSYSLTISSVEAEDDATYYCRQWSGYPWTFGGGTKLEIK
notes: murine mAb
For the molecule B15, the binding result is listed as “binds”.

B16: SC16.72 (antibody, V domains shown)
VH: EVQLQQSGPELVKPGASVKMSCKASGYTFTSYVMHWVKQKPGQGLEWIGYINPYNDGTKYNEKFKGKATLTSDKSSSTAYMELSSLTSEDSAVYYCARLRSRAMDYWGQGTSVTVSS
VL: ENVLTQSPAIMSASLGEKVTMSCRASSSVNYMSWYQQKSDASPKLWIYYTSNLAPGVPARFSGSGSGNSYSLTISSMEGEDAATYYCQQFTSSPYTFGGGTKLEIK
notes: murine mAb
Consider B16, for which the binding result is “binds”.

B17: SC16.61 (antibody, V domains shown)
VH: EVLLQRSGPDLVKPGASVTIPCKASGYTFTDYNMDWVKQSHGKSLEWIGNINTYNGGTIYNQKFKGKATLTVDKPSSTAYMELRSLTSEDTAVYYCARRLRYGGHYFDYWGQGTALTVSS
VL: DIVMTQSTSSLAMSVGQKVTMSCKSSQSLLNSSNQKNYLAWYQQEPGQSPKLLVSFASTRESGVPDRFTGSGSGTDFTLTISGVQAEDLAVYYCQQHYSIPLTFGAGTKLELK
notes: murine mAb
With B17, the binding result is reported as “binds”.

B18: SC16.84 (antibody, V domains shown)
VH: EVQLQQSGPELVKPGASMKISCKASGYSFTGYTMNWVKQSHGKNLEWIGLINPYNGGTTYNQKFKGKATLTVDKSSSTAYMELLSLTSEDSAVYYCALGYYGNYRRYFDVWGAGTTVTVSS
VL: DIQMTQSPSSLSASLGGKVTITCKASQDIKKYIAWYQHKPGKGPRLLIHYTSTLEPGIPSRFSGSGSGRDYSFSISNLEPEDIATYYCLQYDILWTFGGGTKLEIK
notes: murine mAb
For the molecule B18, the binding result is “binds”.

B19: SC16.73 (antibody, V domains shown)
VH: QVQLQQSGAELMKPGASVKISCKANGYTFSSYWIEWLRQRPGHGLEWIGEILPGSDNSNYNEKFKGKATFTADTSSNTAYMQLSSLTSEESAVYYCTRGLRRDGSYYYVMEHWGQGTSVTVSS
VL: DIQMTQSPSSLSASLGERVSLTCRASQDIGYSLNWLQQEPDGTIKRLIYATSSLDSGVPKRFSGSRSGSDYSLTISSLESEDFVDYYCLQYASSPWTFGGGTKLEIK
notes: murine mAb
As for B19, the binding result is recorded as “binds”.
